Consider ten molecules from article PMC2929534 (Biochemistry, 2010).

Residue numbers refer to the chain shown, from its start. In names and notes the source's numbering stands. Where two headings read alike, the source gives them in different places.

The target in data set [1] is AsiA M1A mutant (bacteriophage T4) (UniProt P32267). The data set is described as follows: dynamic light scattering.
Data set [2] shares this target. The data set is described as follows: AUC.
Data set [3] deals with the molecule itself. The data set is described as follows: AUC.
The data set “dynamic light scattering” deals with the molecule itself. In words: dynamic light scattering.
Data set [4] deals with σ^70 subunit of Escherichia coli RNA polymerase (E. coli, UniProt P00579 1-613). In words: native gel or EMSA. For orientation: In EMSA bound probe runs differently from free probe, usually more slowly.
Data set [5] deals with the molecule itself. The data set is described as follows: AUC. The source holds these as a separate data set.

Take “AsiA M1A mutant (from UniProt P32267 1-90) (natural protein)”: the stoichiometry N in data set [1] was 2. Also, in data set [2], the Ka worked out at 3.8e+06 M⁻¹, the dissociation constant Kd was determined as 260 nM and the stoichiometry N worked out at 2.

B1: AsiA protein (wild type) (natural protein, bacteriophage T4, UniProt P32267 1-90, looked up)
chain: MNKNIDTVREIITVASILIKFSREDIVENRANFIAFLNEIGVTHEGRKLNQNSFRKIVSELTQEDKKTLIDEFNEGFEGVYRYLEMYTNK
In the data set “AUC [3]”, B1 registered a Ka of 2.8e+06 M⁻¹ and an equilibrium dissociation constant (Kd) of 350 nM. The “stoichiometry N” value in “dynamic light scattering” was 2.

B2: AsiA K20A mutant (natural protein, bacteriophage T4, UniProt P32267 1-90, looked up)
chain: B1 chain with K20A
As for B2, in the data set “AUC [3]”, the Ka was found to be 2.1e+06 M⁻¹ and the affinity, expressed as Kd, was 480 nM. Besides, the “stoichiometry N” value in the data set “dynamic light scattering” came out at 2.

B3: AsiA E39A mutant (natural protein, bacteriophage T4, UniProt P32267 1-90, looked up)
chain: B1 chain with E39A
As to B3, in “AUC [3]”, the Ka was 5.7e+06 M⁻¹ and the Kd was 180 nM. For the same molecule, the “stoichiometry N” value in the data set “dynamic light scattering” was 2.

B4: AsiA I40A mutant (natural protein, bacteriophage T4, UniProt P32267 1-90, looked up)
chain: B1 chain with I40A
In the case of B4, in the data set “AUC [3]”, the Ka is 360000 M⁻¹ and binding was put at a Kd of 2700 nM. Besides, the “stoichiometry N” value in the data set “dynamic light scattering” worked out at 2.

B5: AsiA V14A mutant (natural protein, bacteriophage T4, UniProt P32267 1-90, looked up)
chain: B1 chain with V14A
In the data set “AUC [3]”, B5 yielded a Ka of 820000 M⁻¹ and a Kd of 1200 nM. Further, the “stoichiometry N” value in “dynamic light scattering” worked out at 2.

B6: AsiA F21A mutant (natural protein, bacteriophage T4, UniProt P32267 1-90, looked up)
chain: B1 chain with F21A
In the data set “AUC [3]”, B6 had a Ka of 4.7e+06 M⁻¹ and an equilibrium dissociation constant (Kd) of 210 nM. Also, the “stoichiometry N” value in “dynamic light scattering” was determined as 2.

B7: AsiA L18A mutant (natural protein, bacteriophage T4, UniProt P32267 1-90, looked up)
chain: B1 chain with L18A
On to B7, for which the binding result in data set [4] was “binds”.

B8: AsiA I17A/I40A double mutant (natural protein, bacteriophage T4, UniProt P32267 1-90, looked up)
chain: B1 chain with I17A, I40A
In “AUC [5]”, B8 had a Ka of 1400 M⁻¹ and a Kd of 694000 nM.

B9: AsiA I17A mutant (natural protein, bacteriophage T4, UniProt P32267 1-90, looked up)
chain: B1 chain with I17A
As to B9, in “AUC [3]”, the Ka was determined as 200000 M⁻¹ and the dissociation constant Kd was determined as 4900 nM. For the same molecule, the “stoichiometry N” value in the data set “dynamic light scattering” came to 2.

As usually defined, the stoichiometry N is a count of units in the complex or per binding partner. In general, Kd refers to the concentration at which binding is half-saturated. A high value points to a looser complex.
